Data on eight molecules can be found in patent publication USRE48267E1, “Variants of C-type natriuretic peptide” (priority 2009, dated 2020).

Where no end group is shown, it is not given here. [ ]: non-standard residue; d: D form. NMeL = CN[C@@H](CC(C)C)C(=O)O; Tle = CC(C)(C)[C@H](N)C(=O)O

The test addresses T1, NPR-B (natriuretic peptide receptor B), murine, expressed endogenously on NIH3T3 cells (murine, UniProt Q6VVW5 17-1047).
T1 sequence (looked up): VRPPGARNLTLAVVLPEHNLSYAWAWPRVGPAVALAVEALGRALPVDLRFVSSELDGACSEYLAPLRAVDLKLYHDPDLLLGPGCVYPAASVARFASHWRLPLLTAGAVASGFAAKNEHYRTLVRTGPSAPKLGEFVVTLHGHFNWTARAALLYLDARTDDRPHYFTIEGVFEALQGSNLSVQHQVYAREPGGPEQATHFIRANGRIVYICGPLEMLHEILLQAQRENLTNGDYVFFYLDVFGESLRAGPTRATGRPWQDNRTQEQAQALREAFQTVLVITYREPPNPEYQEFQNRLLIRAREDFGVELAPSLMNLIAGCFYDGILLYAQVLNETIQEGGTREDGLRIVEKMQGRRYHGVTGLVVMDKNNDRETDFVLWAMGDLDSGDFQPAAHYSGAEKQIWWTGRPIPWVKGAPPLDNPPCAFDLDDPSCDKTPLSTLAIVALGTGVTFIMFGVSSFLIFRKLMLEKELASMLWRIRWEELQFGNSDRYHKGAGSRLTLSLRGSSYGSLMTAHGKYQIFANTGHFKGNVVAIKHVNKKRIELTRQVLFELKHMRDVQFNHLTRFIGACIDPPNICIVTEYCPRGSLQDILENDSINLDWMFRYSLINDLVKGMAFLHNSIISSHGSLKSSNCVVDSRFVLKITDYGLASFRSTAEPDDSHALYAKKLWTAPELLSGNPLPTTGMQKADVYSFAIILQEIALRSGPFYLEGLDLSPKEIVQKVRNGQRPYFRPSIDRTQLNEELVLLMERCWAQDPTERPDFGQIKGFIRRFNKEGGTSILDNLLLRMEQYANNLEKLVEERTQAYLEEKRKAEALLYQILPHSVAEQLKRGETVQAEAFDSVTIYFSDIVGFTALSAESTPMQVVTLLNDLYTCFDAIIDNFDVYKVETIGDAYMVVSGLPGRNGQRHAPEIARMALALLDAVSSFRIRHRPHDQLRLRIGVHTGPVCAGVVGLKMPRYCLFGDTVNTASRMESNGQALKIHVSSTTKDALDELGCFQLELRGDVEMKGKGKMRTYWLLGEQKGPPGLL
In words: cell-based or functional assay.

Consider GLSKGCFG[NMeL]K[NMeL]DRIGSMSG[NMeL]GC (ends and bridges not checked) [CNP22, N-methyl-L9, N-methyl-L11, N-methyl-L20], for which the “cGMP response rel. to 1 uM CNP22; 10 nM peptide, NIH3T3 cells” value is 18 rel. to 1 uM CNP22 (100) and the “cGMP response rel. to 1 uM CNP22; 1 uM peptide, NIH3T3 cells” value was 10 rel. to 1 uM CNP22 (100).
As to GLSKGCXGLKLDRIGSMSGLGC (3-Cl-Phe at 7) [CNP22, 3-chloro-F7], the “cGMP response rel. to 1 uM CNP22; 10 nM peptide, NIH3T3 cells” value was 17 rel. to 1 uM CNP22 (100) and the “cGMP response rel. to 1 uM CNP22; 1 uM peptide, NIH3T3 cells” value was 93 rel. to 1 uM CNP22 (100).
The matching figures for GLSKGCF[Tle]LKLDRIGSMSGLGC (ends and bridges not checked) [CNP22, t-butyl-G8]: 2 rel. to 1 uM CNP22 (100) and 18 rel. to 1 uM CNP22 (100).
As for GLSKGCFG[NMeL]KLDRIGSMSG[NMeL]GC (ends and bridges not checked) [CNP22, N-methyl-L9, N-methyl-L20], the “cGMP response rel. to 1 uM CNP22; 10 nM peptide, NIH3T3 cells” value is 1 rel. to 1 uM CNP22 (100) and the “cGMP response rel. to 1 uM CNP22; 1 uM peptide, NIH3T3 cells” value is 1 rel. to 1 uM CNP22 (100).
With GLSKGCXGLKLDRIGSMSGLGC (D-Phe at 7) [CNP22, D-F7 (D-Phe)], the “cGMP response rel. to 1 uM CNP22; 10 nM peptide, NIH3T3 cells” value is 2 rel. to 1 uM CNP22 (100) and the “cGMP response rel. to 1 uM CNP22; 1 uM peptide, NIH3T3 cells” value is 6 rel. to 1 uM CNP22 (100).
Consider GLSKGCFGLKLDRIGSMSGLGC [CNP22 (wild-type human CNP-22)], for which the “cGMP response rel. to 1 uM CNP22; 10 nM peptide, NIH3T3 cells” value is 46 rel. to 1 uM CNP22 (100) and the “cGMP response rel. to 1 uM CNP22; 1 uM peptide, NIH3T3 cells” value is 100 rel. to 1 uM CNP22 (100).
Regarding GLSKGCFGLK[NMeL]DRIGSMSGLGC (ends and bridges not checked) [CNP22, N-methyl-L11], the “cGMP response rel. to 1 uM CNP22; 10 nM peptide, NIH3T3 cells” value is 10 rel. to 1 uM CNP22 (100) and the “cGMP response rel. to 1 uM CNP22; 1 uM peptide, NIH3T3 cells” value is 51 rel. to 1 uM CNP22 (100).
In the case of GLSKGCXGLKLDRIGSMSGLGC (N-methyl-Phe at 7) [CNP22, N-methyl-F7 (methylated amide)], the “cGMP response rel. to 1 uM CNP22; 10 nM peptide, NIH3T3 cells” value is 2 rel. to 1 uM CNP22 (100) and the “cGMP response rel. to 1 uM CNP22; 1 uM peptide, NIH3T3 cells” value is 38 rel. to 1 uM CNP22 (100).
